This passage reports Kd results from publication doi:10.64898/2025.12.16.693247 (2025).

Assay [1] has as its target RIPR EGF 9+ (L898 - N1086) (P. falciparum, UniProt O97302 898-1086, N964Q | N1021Q). In words: SPR. (Surface plasmon resonance follows binding to a sensor surface in real time, without labels.)
For another assay, the target named is RIPR EGF 7+. In words: SPR.
Another assay deals with RIPR EGF 6+. As to the kind of experiment: SPR.
The target in the next assay is RIPR EGF 8+. As to the kind of experiment: SPR.
Assay [2] deals with T1, full-length RIPR (RH5-interacting protein) (P. falciparum, UniProt O97302 20-1086). In words: BLI; 2:1 heterogeneous ligand fit, KD1. In general terms: BLI is a label-free optical method that tracks binding on a fibre tip over time.
Assay [3] deals with T2, RIPR-Tail (D717 - N1086) (P. falciparum, UniProt O97302 717-1086, N964Q | N1021Q). In words: SPR; RIPR-Tail immobilised, steady state.
The target in assay [4] is T2, RIPR-Tail (D717 - N1086). In words: SPR; PTRAMP-CSS immobilised, steady state.
Assay [5] concerns the target T1, full-length RIPR (RH5-interacting …). In words: BLI; 2:1 heterogeneous ligand fit, KD2 (second site).
Assay [6] deals with mono-biotinylated RIPR-Tail (P. falciparum, UniProt O97302 717-1086, N964Q | N1021Q, biotin on the BAP tag (mono-biotinylated by co-transfected BirA)). As to the kind of experiment: SPR.

B1: PTRAMP-CSS heterodimer (complex)
chain 1: CNLKVRNNWEHFLQVYQNNGNFKMEILEPECTIQKNLPSEEEKEEFIDFDRKELLLHDFVVIKNSQFTDEKTLELYLSKEENNKSYLMLTFYLGDLKLMIGHNSPYEISLILNVATVNKNMSNCKNNSYNIVLLKTTDVFNTSDLEILEGPIQFSLGKSSGAFRINVTNFFLNNTWKAFTKDKISFLIKPEENCYTILENKINKPQLLIEKKTTFYSEWGEWSNCSMDCDHPDNVQIRERECIHPSGDCFKGDLKESRPCIIPLPPCNELFSHKDNST
chain 2: QDEKSVKNICVCDFTDKLNFLPLEKTKILCELKPQYGEDIKIIANKEYEINCMNNSKVFCPLKDTFINNTNIKLYSPKLHFEIKDITHKGKNAALYYLKIDEEASDIFFSCSIKPKQVSGLLEGEVRVNLKKHINEEYSIFNEEEDVHVCDFSKGNLDITPSAGFYLKNSRNVSCIYRVIPNKLFLIKLPKLDIVTEKLLPSIVNCLSEFSFINFTLKHVQEGDNYISFNVIFGEFKKHFNLTCSLDLSDFQQEPCNLGKTANITFIFSK
With B1, the Kd in assay [1] is 6.44 µM; in the assay with RIPR EGF 7+, 2.35 µM; with RIPR EGF 6+ it was 5.15 µM; with RIPR EGF 8+, 3.55 µM; in assay [2] it was 0.00113 µM; with RIPR-Tail (D717 - N1086) [3], 5.69 µM. For the same molecule, the Kd with RIPR-Tail (D717 - N1086) [4] was determined as 6.23 µM; in assay [5], 0.176 µM.

B2: CSS (cysteine-rich small secreted protein), residues Q21-K290 (natural protein)
chain: B1 chain 2
Take B2: the dissociation constant (Kd) in assay [6] is 0.95 µM.

The term Kd denotes the constant that tells how readily two partners part at equilibrium. Read a low Kd as tighter binding.
